We go through two molecules from US20230357378A1 (NEURACLE SCIENCE, published 2023).

The target in one experiment is T1, Peptide F4-BSA (C-terminal Cys conjugated to BSA).
T1 construct: BSA-conjugated human FAM19A5 peptide fragment F4, lane 6; size printed as 106 kDa
T1 peptide: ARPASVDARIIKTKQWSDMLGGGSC
Put plainly: Western blot, 300 ng antigen per well, anti-rabbit IgG (Fc specific)-HRP 1:4000.

In a further experiment the target is T2, Peptide F6-BSA (C-terminal Cys conjugated to BSA).
T2 construct: BSA-conjugated human FAM19A5 peptide fragment F6, lane 8; size printed as 103 kDa
T2 peptide: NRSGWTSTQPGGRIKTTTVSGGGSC
The experiment is described as above.

A further experiment concerns the target T3, Peptide F1-BSA (C-terminal Cys conjugated to BSA).
T3 construct: BSA-conjugated human FAM19A5 peptide fragment F1, lane 3; size printed as 105 kDa
T3 peptide: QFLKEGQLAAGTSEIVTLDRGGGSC
The experiment is described as above.

The target of another experiment is FAM19A1-flag. Put plainly: immunoblot of vector and flag-tagged FAM19A1 to FAM19A5 samples.

B1: 1-65-scFv-rabbit-Fc-SSS (Fc fusion)
VH: AVTLDESGGGLQTPGGALSLVCKASGFTFSSYQMGWVRQAPGKGLEWVGVINKSGSDTSYGSAVKGRATISRDNGQSTVRLQLNNLRAEDTGTYFCAKGSASYITAATIDAWGHGTEVIVSS
VL: ALTQPSSVSANPGETVKITCSGGGSSGYGYGWYQQKSPSSAPLTVIYWNDKRPSDIPSRFSGSKSGSTHTLTITGVQAEDEAVYFCGNDDYSSDSGYVGVFGAGTTLTVL
notes: scFv of 1-65 fused to rabbit Fc ('SSS'), used as primary antibody in the Western blot; also called anti-FAM19A5 antibody 1-65; monoclonal antibody clone 1-65
B1: the binding result in the experiment with Peptide F4-BSA, with Peptide F6-BSA and with Peptide F1-BSA was “no binding (tested: 2 ug/ml)” throughout.

B2: chimeric anti-FAM19A5-IgG2/4 monoclonal antibody (1-65) (antibody, V domains shown)
VH: B1 VH
VL: B1 VL
notes: also called anti-FAM19A5-IgG2/4 antibody
Consider B2, for which the binding result with FAM19A1-flag is “no binding”.
